Measured values published in doi:10.1101/2023.01.10.523203 (bioRxiv, 2023).
“And” between values parts separate entries of the source, which are not always exact repeats. Identical values can stand only once.

Molecular target: the molecule itself
Test: SEC

B1: LZTR1^L580P recombinant protein (LZTR1-Myc-6xHis with p.L580P) (natural protein)
chain: MAGPGSTGGQIGAAALAGGARSKVAPSVDFDHSCSDSVEYLTLNFGPFETVHRWRRLPPCDEFVGARRSKHTVVAYKDAIYVFGGDNGKTMLNDLLRFDVKDCSWCRAFTTGTPPAPRYHHSAVVYGSSMFVFGGYTGDIYSNSNLKNKNDLFEYKFATGQWTEWKIEGRLPVARSAHGATVYSDKLWIFAGYDGNARLNDMWTIGLQDRELTCWEEVAQSGEIPPSCCNFPVAVCRDKMFVFSGQSGAKITNNLFQFEFKDKTWTRIPTEHLLRGSPPPPQRRYGHTMVAFDRHLYVFGGAADNTLPNELHCYDVDFQTWEVVQPSSDSEVGGAEVPERACASEEVPTLTYEERVGFKKSRDVFGLDFGTTSAKQPTQPASELPSGRLFHAAAVISDAMYIFGGTVDNNIRSGEMYRFQFSCYPKCTLHEDYGRLWESRQFCDVEFVLGEKEECVQGHVAIVTARSRWLRRKITQARERLAQKLEQEAAPVPREAPGVAAGGARPPLLHVAIREAEARPFEVLMQFLYTDKIKYPRKGHVEDVLLIMDVYKLALSFQLCRLEQLCRQYIEASVDLQNVPVVCESAARLQLSQLKEHCLNFVVKESHFNQVIMMKEFERLSSPLIVEIVRRKQQPPPRTPLDQPVDIGTSLIQDMKAYLEGAGAEFCDITLLLDGHPRPAHKAILAARSSYFEAMFRSFMPEDGQVNISIGEMVPSRQAFESMLRYIYYGEVNMPPEDSLYLFAAPYYYGFYNNRLQAYCKQNLEMNVTVQNVLQILEAADKTQALDMKRHCLHIIVHQFTKVSKLPTLRSLSQQLLLDIIDSLASHISDKQCAELGADI
stoichiometry N: 6 and 4
